Measured values from patent publication US20220387586A1 (Hoffmann-La Roche, published 2022).
Each block holds one binder with its values, some of them ahead of it.

Columns and labels:
[1] = target: T1, full-length human PD1 on cells (human, UniProt Q15116 25-288); experiment: cell-based or functional assay
[2] = target: T2, LAG3 on cells (recombinant CHO cells expressing Lag3) (human, UniProt P18627 29-525); experiment: cell-based or functional assay
T2 sequence: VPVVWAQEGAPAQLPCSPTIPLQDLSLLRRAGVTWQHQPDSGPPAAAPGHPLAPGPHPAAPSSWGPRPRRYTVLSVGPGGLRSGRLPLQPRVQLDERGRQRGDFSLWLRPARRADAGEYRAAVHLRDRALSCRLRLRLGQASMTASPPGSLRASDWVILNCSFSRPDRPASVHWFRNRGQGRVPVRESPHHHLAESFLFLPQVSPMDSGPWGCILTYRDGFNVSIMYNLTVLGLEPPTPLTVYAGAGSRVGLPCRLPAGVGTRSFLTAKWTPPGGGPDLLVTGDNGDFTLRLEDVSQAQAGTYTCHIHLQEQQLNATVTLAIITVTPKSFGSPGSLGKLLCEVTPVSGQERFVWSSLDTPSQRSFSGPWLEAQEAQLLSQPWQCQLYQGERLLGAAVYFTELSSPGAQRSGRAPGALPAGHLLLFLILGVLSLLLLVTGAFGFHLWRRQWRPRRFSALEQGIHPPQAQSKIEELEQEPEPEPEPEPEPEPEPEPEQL

[3] = target: PD1 on PD1+LAG3+ human U2OS cells (UniProt Q15116 25-288); experiment: cellular PD1/LAG3 dimerization assay, 7500 PD1+LAG3+ U2OS cells a well, 20 h at 37 °C, chemoluminescence; the signal needs PD1 and LAG3 bound at once
Sequence of PD1 on PD1+LAG3+ human U2OS cells (Q15116 25-288): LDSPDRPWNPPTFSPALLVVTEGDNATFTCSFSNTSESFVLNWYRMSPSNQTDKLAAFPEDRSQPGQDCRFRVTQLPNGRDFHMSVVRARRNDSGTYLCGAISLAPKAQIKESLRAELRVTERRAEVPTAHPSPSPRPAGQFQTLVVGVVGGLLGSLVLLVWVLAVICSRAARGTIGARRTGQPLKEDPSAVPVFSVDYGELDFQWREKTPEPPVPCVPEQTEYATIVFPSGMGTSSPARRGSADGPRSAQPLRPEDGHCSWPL
Procedure: Next, assay plates were equilibrated to room temperature and a substrate/buffer mix (PathHunterFlash detection reagent, Discoverx) was added and again incubated for 4h. For measuring chemoluminescence induced upon simultaneous binding and dimerization a SpectraMax L plate reader (Molecular Devices) was used.

[4] = target: T2, LAG3 on cells (recombinant CHO cells …); experiment: cell-based or functional assay; remark: listed apart in the source
[5] = target: T3, cynomolgus LAG3 on cells (cynomolgus); experiment: flow cytometry on activated cynomolgus PBMC, 10 µg/ml (only 2nd Ab (hu): 7.62)
T3 construct: whole, on cells; also called cyno-LAG-3; cynoLAG3
Procedure: Thus, cynomolgus peripheral blood mononuclear cells (PBMC) were prepared from fresh cynomolgus blood and were then activated by CD3/CD28 pre-treatment (1 μg/ml) for 2-3 days. […] After staining, cells were washed two times with PBS/2% FCS and analyzed on a FACS Fortessa (BD).

[6] = target: T4, biotinylated-Lag3 (UniProt P18627 23-450, limits assumed, biotinylated); experiment: ELISA, inhibition of biotinylated-Lag3 binding to MHC-II on A375 cells (competitor MHC-II)
T4 construct: Probably a human LAG3 ECD construct; also called Lag3 (MHCII/ELISA)
T4 sequence (looked up): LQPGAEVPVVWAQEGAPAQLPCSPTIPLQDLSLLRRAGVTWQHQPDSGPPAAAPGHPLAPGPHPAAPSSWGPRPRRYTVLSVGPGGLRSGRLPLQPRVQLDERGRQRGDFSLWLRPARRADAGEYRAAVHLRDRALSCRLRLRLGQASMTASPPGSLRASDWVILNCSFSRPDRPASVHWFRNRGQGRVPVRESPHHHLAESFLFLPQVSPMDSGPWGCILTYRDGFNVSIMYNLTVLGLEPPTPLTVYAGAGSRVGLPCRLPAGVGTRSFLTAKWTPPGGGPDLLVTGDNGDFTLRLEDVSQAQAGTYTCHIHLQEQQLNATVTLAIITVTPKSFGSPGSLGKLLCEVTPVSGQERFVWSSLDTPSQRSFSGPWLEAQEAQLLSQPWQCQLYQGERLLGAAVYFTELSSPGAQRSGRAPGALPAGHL
Procedure: 25 μl/well of A375 cells (10000 cells/well) were seeded into tissue culture treated 384-well plates (Corning, 3701) and incubated at 37° C. overnight. […] After washing (1×90 μl in PBST) cells were fixed by addition of 30 μl/well glutaraldehyde to a final concentration of 0.05% (Sigma Cat.No: G5882), 10 min at room temperature. After washing (3×90 μl/well with PBST-buffer) 25 μl/well Poly-HRP40-Streptavidin (Fitzgerald, 65R-S104PHRPx) was added in a 1:2000 or 1:8000 dilution and incubated at RT for 1 h. After washing (3×90 μl/well with PBST-buffer) 25 μl/well TMB substrate (Roche, #11835033001) was added and incubated for 2 to 10 min. Measurement took place on a Tecan Safire 2 instrument at 370/492 nm.

[7] = target: T5, biotinylated cynoPD1-ECD-Biotin (cynomolgus, UniProt B0LAJ3 25-170, biotinylated; the site and any Avi or His tag are not stated in the passages shown); experiment: ELISA on coated cynoPD1-ECD-Biotin
T5 construct: also called cyPD1
T5 sequence (B0LAJ3 entry or part of it limits assumed): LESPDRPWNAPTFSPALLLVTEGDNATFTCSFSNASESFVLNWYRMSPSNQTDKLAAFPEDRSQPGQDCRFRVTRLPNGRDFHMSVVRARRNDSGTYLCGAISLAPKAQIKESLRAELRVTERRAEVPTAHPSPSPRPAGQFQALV

[8] = target: T6, biotinylated PD1-ECD-AviHis (human, UniProt Q15116 25-170, biotinylated); experiment: ELISA (hu PD1, as described above)
T6 construct: also called huPD1; hu PD1; not shown: Avi-His tag
T6 sequence (Q15116 25-170): as the sequence (B0LAJ3 entry or part of it limits assumed) above, with E2D, A10P, L19V, A35T, R75Q, A144T counted along it
Procedure: After washing (3×90 μl/well with PBST-buffer) 25 μl/well goat-anti-human H+L-POD (JIR, JIR109-036-088)/Sheep-anti-mouse-POD (GE Healthcare; NA9310) was added in 1:2000/1:1000 dilution and incubated at RT for 1 h on shaker. After washing (3×90 μl/well with PBST-buffer) 25 μl/well TMB substrate (Roche Catalogue No. 11835033001) was added and incubated until OD 2-3. Measurement took place at 370/492 nm.

[9] = target: T6, biotinylated PD1-ECD-AviHis; experiment: ELISA on coated biotinylated PD1-ECD-AviHis
[10] = target: T7, hu PD1-ECD (human, UniProt Q15116 25-170); experiment: SPR; row head 'Affinity KD 37° C.'; first of two numbers
T7 construct: SPR analyte; also called human PD1-ECD
T7 sequence (Q15116 25-170 limits assumed): as the sequence (B0LAJ3 entry or part of it limits assumed) above, with E2D, A10P, L19V, A35T, R75Q, A144T counted along it
Procedure: (§1) The samples were injected for 20 seconds with a concentration of 10 nM and bound to the second flow cell.

[11] = target: T1, full-length human PD1 on cells; experiment: cell ELISA on CHO-K1 cells expressing full-length human PD1
Procedure: (to avoid internalization). After washing carefully (1×90 μl/well PBST) cells were fixed by adding 30 μl/well 0.05% Glutaraldehyde (Sigma, Cat.No: G5882, 25%) diluted in 1×PBS-buffer and incubated for 10 min at RT. After washing (3×90 μl/well PBST) 25 μl/well secondary antibody was added for detection: goat-anti-human H+L-POD (JIR, JIR109-036-088)/Sheep-anti-mouse-POD (GE NA9310) followed by 1h incubation at RT on shaker. After washing (3×90 μl/well PBST) 25 μl/well TMB substrate solution (Roche 11835033001) was added and incubated until OD 1.0-2.0. Plates were measured at 370/492 nm.

[12] = target: T5, biotinylated cynoPD1-ECD-Biotin; experiment: ELISA on cyno PD1; row head 'cynomolgus crossreactivity (EC50 [nm])'
[13] = target: T7, hu PD1-ECD; experiment: SPR; row head 'Affinity KD 37° C.'; second of two numbers, equal to the 25 °C value of Table 3
[14] = target: T7, hu PD1-ECD; experiment: SPR (Biacore T200), antibody captured by anti-human IgG, hu PD1-ECD as analyte, 25 °C, 1:1 Langmuir fit
Procedure: Therefore, an anti-human IgG was immobilized by amine coupling to the surface of a (Biacore) CM5 sensor chip. […] The sensor chip surface was regenerated after each analysis cycle. The equilibrium constant and kinetic rate constants were finally gained by fitting the data to a 1:1 langmuir interaction model.
as §1
Finally the double referenced data was fitted to a 1:1 Langmuir interaction model with the Biacore T200 Evaluation Software.

T1 sequence (Q15116 25-288 limits assumed): as the sequence (Q15116 25-288) above

B1: PD1/LAG3 0725 (bispecific antibody, human IgG1, kappa, L234A L235A)
heavy 1: not shown
heavy 2: DKTHTCPPCPAPEAAGGPSVFLFPPKPKDTLMISRTPEVTCVVVDVSHEDPEVKFNWYVDGVEVHNAKTKPREEQYNSTYRVVSVLTVLHQDWLNGKEYKCKVSNKALGAPIEKTISKAKGQPREPQVCTLPPSRDELTKNQVSLSCAVKGFYPSDIAVEWESNGQPENNYKTTPPVLDSDGSFFLVSKLTVDKSRWQQGNVFSCSVMHEALHNHYTQKSLSLSPGKGGGGSGGGGSEVQLLESGGGLVQPGGSLRLSCAASGFIFDDYTMNWVRQAPGKGLEWVAVISWDGGGTYYTDSVKGRFTISRDDFKNTLYLQMNSLRAEDTAVYYCAKGLTDTTLYGSDYWGQGTLVTVSSASTKGPSVFPLAPSSKSTSGGTAALGCLVEDYFPEPVTVSWNSGALTSGVHTFPAVLQSSGLYSLSSVVTVPSSSLGTQTYICNVNHKPSNTKVDEKVEPKSC
light 1: EVQLLESGGGLVQPGGSLRLSCAASGFSFSSYTMSWVRQAPGKGLEWVATISGGGRDIYYPDSVKGRFTISRDNSKNTLYLQMNSLRAEDTAVYYCVLLTGRVYFALDSWGQGTLVTVSSASVAAPSVFIFPPSDEQLKSGTASVVCLLNNFYPREAKVQWKVDNALQSGNSQESVTEQDSKDSTYSLSSTLTLSKADYEKHKVYACEVTHQGLSSPVTKSFNRGEC
light 2: not shown
notes: 1+1 trans format: LAG3 Fab fused to the C-terminus of the Fc hole chain
- EC50 [nM], PD-1 & LAG-3 combo reporter assay (NFAT luciferase) [1]: 2.2 nM
- EC50 [nM], PD-1 & LAG-3 combo reporter assay (NFAT luciferase) [2]: 2.2 nM
- EC50 (read off the curve) [3]: ~0.06 nM

B5: PD1-0103-0312 (antibody, human IgG1, V domains shown)
VH: EVQLLESGGGLVQPGGSLRLSCAASGFSFSSYTMSWVRQAPGKGLEWVATISGGGRDIYYPDSVKGRFTISRDNSKNTLYLQMNSLRAEDTAVYYCVLLTGRVYFALDSWGQGTLVTVSS
VL: DIVMTQSPDSLAVSLGERATINCKASESVDTSDNSFIHWYQQKPGQSPKLLIYRSSTLESGVPDRFSGSGSGTDFTLTISSLQAEDVAVYYCQQNYDVPWTFGQGTKVEIK
notes: Humanized; also called PD1-103-0312; PD-0103-0312
- EC50 [7]: 0.0083 µg/mL
- EC50 [8]: 0.1 nM
- EC50 [9]: 0.011 µg/mL
- Kd [10]: 1.5 nM
- EC50 [11]: 0.0101 µg/mL
- EC50 [12]: 0.08 nM
- Kd [13]: 1.8 nM
- Kd [14]: 1.8 nM
- koff [14]: 0.000345 s⁻¹
- kon [14]: 195000 M⁻¹ s⁻¹

Further lines, results first:

- EC50 [nM], PD-1 & LAG-3 combo reporter assay (NFAT luciferase) [1]: 0.6 nM
- EC50 [nM], PD-1 & LAG-3 combo reporter assay (NFAT luciferase) [2]: 0.6 nM
- EC50 (read off the curve) [3]: ~0.06 nM
B2: PD1/LAG3 0750 (bispecific antibody, human IgG1, kappa, L234A L235A)
heavy 1: not shown
heavy 2: EVQLLESGGGLVQPGGSLRLSCAASGFIFDDYTMNWVRQAPGKGLEWVAVISWDGGGTYYTDSVKGRFTISRDDFKNTLYLQMNSLRAEDTAVYYCAKGLTDTTLYGSDYWGQGTLVTVSSASTKGPSVFPLAPSSKSTSGGTAALGCLVEDYFPEPVTVSWNSGALTSGVHTFPAVLQSSGLYSLSSVVTVPSSSLGTQTYICNVNHKPSNTKVDEKVEPKSCDKTHTCPPCPAPEAAGGPSVFLFPPKPKDTLMISRTPEVTCVVVDVSHEDPEVKFNWYVDGVEVHNAKTKPREEQYNSTYRVVSVLTVLHQDWLNGKEYKCKVSNKALGAPIEKTISKAKGQPREPQVCTLPPSRDELTKNQVSLSCAVKGFYPSDIAVEWESNGQPENNYKTTPPVLDSDGSFFLVSKLTVDKSRWQQGNVFSCSVMHEALHNHYTQKSLSLSPGKGGGGSGGGGSEVQLLESGGGLVQPGGSLRLSCAASGFIFDDYTMNWVRQAPGKGLEWVAVISWDGGGTYYTDSVKGRFTISRDDFKNTLYLQMNSLRAEDTAVYYCAKGLTDTTLYGSDYWGQGTLVTVSSASTKGPSVFPLAPSSKSTSGGTAALGCLVEDYFPEPVTVSWNSGALTSGVHTFPAVLQSSGLYSLSSVVTVPSSSLGTQTYICNVNHKPSNTKVDEKVEPKSC
light 1: B1 light 1
light 2: not shown
notes: 2+1 trans format: one LAG3 Fab N-terminal, one fused to the C-terminus of the Fc hole chain; also called 1 + 2 trans

- EC50 [nM] in Jurkat LAG3 + SED + Raji (NFAT luciferase), 2nd assay [4]: 22.6 nM
- % positive cyno cells (PBLs) after CD3/CD28 activation [5]: 50.7%
- IC50 [6]: 1 nM
B3: humanized BAP050 (LAG525) (antibody, V domains shown)
VH: QIQLVQSGPELKKPGETVKISCKASGFTLTNYGMNWVRQTPGKGLKWMGWINTDTGEPTYADDFKGRFAFSLETSASTASLQINNLKNADTATYFCARNPPYYYGTNNAEAMDYWGQGTTVTVSS
VL: DIQMTQTTSSLSASLGDRVTISCSSSQDISNYLNWYQQKPDGTVKVLIYYTSTLHLGVPSRFSGSGSGTDYSLTISNLELEDIATYYCQQYYNLPWTFGQGTKVEIK
notes: also called aLAG3(BAP050)

- % positive cyno cells (PBLs) after CD3/CD28 activation [5]: 18.6%
B4: Reference LAG3 antibody BMS-986016 (antibody, V domains shown)
VH: QVQLQQWGAGLLKPSETLSLTCAVYGGSFSDYYWNWIRQPPGKGLEWIGEINHRGSTNSNPSLKSRVTLSLDTSKNQFSLKLRSVTAADTAVYYCAFGYSDYEYNWFDPWGQGTLVTVSS
VL: EIVLTQSPATLSLSPGERATLSCRASQSISSYLAWYQQKPGQAPRLLIYDASNRATGIPARFSGSGSGTDFTLTISSLEPEDFAVYYCQQRSNWPLTFGQGTNLEIK
notes: also called aLAG3(BMS986016)
